± gives the standard deviation.
Assay: protein stability index of a GFP-peptide fusion (GPS, HEK-293T) (PSI 1-6); higher = more stable
[1] = treatment: DMSO, c terminus: a fixed tail appended
[2] = treatment: MLN4924 1 uM, 8 h, c terminus: a fixed tail appended
[3] = treatment: DMSO, c terminus: native
[4] = treatment: MLN4924 1 uM, 8 h, c terminus: native
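Further: 24-mer peptide tiles fused after GFP, lentivirally expressed, FACS-sorted into six equal bins by GFP/DsRed ratio, decoded by Illumina sequencing, PSI is the read-weighted mean bin number.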

Sequence: RKQILLRGKLKKTEEELRRIQTQK [ZC2HC1C]
- protein stability index [1]: 3.99 ± 0.24
- protein stability index [2]: 4.2 ± 0.26

Sequence: FWNFKQMWDSKKIGLRQHHCRKCG [WDFY2]
- protein stability index [1]: 2.34 ± 0.28
- protein stability index [2]: 2.66 ± 0.45

Sequence: HPFYHCLVAEVPKEHWTPEGHSIV [SAT1]
- protein stability index [1]: 2.76 ± 0.33
- protein stability index [2]: 2.54 ± 0.25

Sequence: HIGNSTQATVRDAVVGRPSMDKKA [ATL3]
- protein stability index [1]: 3.97 ± 0.21
- protein stability index [2]: 4.49 ± 0.6

Sequence: SLCNLEESITSAGRDDLESFQLEI [FAM98B]
- protein stability index [1]: 3.26 ± 0.16
- protein stability index [2]: 3.45 ± 0.19

Sequence: MDPPNPEEVKTPEEEMRSHYVAQT [GAGE1]
- protein stability index [1]: 5.44 ± 0.087
- protein stability index [2]: 5.4 ± 0.2

Sequence: GQIIKDIDSGSPAEEAGLKNNDLV [PDZK1]
- protein stability index [1]: 5.31 ± 0.33
- protein stability index [2]: 5.27 ± 0.079

Sequence: YSAAALQEAMKRLRGAKAFRLPGL [FCHO1]
- protein stability index [1]: 2.3 ± 0.076
- protein stability index [2]: 2.42 ± 0.2

Sequence: GIHPLSSSEVDELIHKADEVTLSE [PALM]
- protein stability index [1]: 5.35 ± 0.2
- protein stability index [2]: 5.23 ± 0.12

Sequence: EAVFLRAVKLYNSGDFRSSTEDME [P3H4]
- protein stability index [1]: 3.69 ± 0.36
- protein stability index [2]: 3.73 ± 0.52

Sequence: SNHSWNTQTWCTQSWNNQAWNSPF [NANOGP8]
- protein stability index [1]: 2.24 ± 0.23
- protein stability index [2]: 2.19 ± 0.18

Sequence: AVEGLTEAEEEELRAELTKVEEEI [TPD52L2]
- protein stability index [1]: 5.6 ± 0.25
- protein stability index [2]: 5.54 ± 0.12

Sequence: QQPSKHRTDEELQPPTTTVARSGT [PLK2]
- protein stability index [1]: 5.47 ± 0.15
- protein stability index [2]: 5.27 ± 0.1

Sequence: EQERRLSEARLSQRDLSPTAEDAE [FCHSD1]
- protein stability index [1]: 5.41 ± 0.23
- protein stability index [2]: 5.6 ± 0.26

Sequence: RGTGQLNRFVQLSGRPHLPGKKKI [KLHDC10]
- protein stability index [1]: 2.99 ± 0.2
- protein stability index [2]: 3.03 ± 0.26

Sequence: DQLNDGQDFAKDLLKTLYNSIKNE [PSD2]
- protein stability index [1]: 3.56 ± 0.21
- protein stability index [2]: 3.71 ± 0.32

Sequence: ALATRALPCPAHVVFRYQGVRMS [FCHSD1]
- protein stability index [3]: 3.1 ± 0.67
- protein stability index [4]: 2.58 ± 0.84

Sequence: HNGDMEKILLDAQHESGQSSSRGS [BNIP3L]
- protein stability index [1]: 5.18 ± 0.17
- protein stability index [2]: 5.32 ± 0.3

Sequence: YESGYAFLPDLLIFQMVIICLMCV [SMG5]
- protein stability index [1]: 3.23 ± 0.32
- protein stability index [2]: 3.16 ± 0.57

Sequence: KPKMYFMTMIVSLAAVAWVGQQVH [ARL6IP1]
- protein stability index [1]: 2.83 ± 0.48
- protein stability index [2]: 3.28 ± 0.69

Sequence: PPENSDSGTGKKEKEKKNRKGKDK [EIF5]
- protein stability index [1]: 5.58 ± 0.21
- protein stability index [2]: 5.48 ± 0.28

Sequence: SMSTRRLGVAVAVLGGFLYAVGGS [KLHL20]
- protein stability index [1]: 2.29 ± 0.42
- protein stability index [2]: 2.67 ± 1.2

Sequence: EEFISNTLFKKIQALQKEKETLAV [CCDC6]
- protein stability index [1]: 3.27 ± 0.33
- protein stability index [2]: 3.39 ± 0.33

Sequence: HQPKGLEEENAQLRGALQQGEAFQ [PBXIP1]
- protein stability index [1]: 5.07 ± 0.24
- protein stability index [2]: 5.05 ± 0.12

Sequence: MRGVAEVKEPCSLPMLSVDMENKE [SAMD13]
- protein stability index [1]: 5.32 ± 0.18
- protein stability index [2]: 5.53 ± 0.21

Sequence: GCMLIELALRGRLQLEACGMRRKS [GOLPH3]
- protein stability index [1]: 1.83 ± 0.31
- protein stability index [2]: 2.25 ± 0.28

Sequence: AKNLQEAEEWYKSKYADLSDAANR [PRPH]
- protein stability index [1]: 4.43 ± 0.18
- protein stability index [2]: 4.48 ± 0.22

Sequence: MGHCCCKPYNCLQCLDKTNESALV [MTUS2]
- protein stability index [1]: 3.28 ± 0.3
- protein stability index [2]: 3.4 ± 0.34

Sequence: FGHVMHQICAQVSFFFPPVNLPIS [NLN]
- protein stability index [1]: 2.71 ± 0.69
- protein stability index [2]: 3.42 ± 0.31

Sequence: EWASHTAALTNKHSQELTNEKEKA [SASS6]
- protein stability index [1]: 5.574 ± 0.002
- protein stability index [2]: 5.39 ± 0.19

Sequence: AGRPRAERRPRRVEAERPHSLIGV [FAM189A2]
- protein stability index [1]: 4.05 ± 0.15
- protein stability index [2]: 3.94 ± 0.21

Sequence: GVGKSALTVQFVQGIFVEKYDPTI [RAP1B]
- protein stability index [1]: 2.25 ± 0.28
- protein stability index [2]: 2.07 ± 0.25

Sequence: SLHKGAKRKGIKSSIGRLFGKKEK [PPFIA4]
- protein stability index [1]: 3.6 ± 0.46
- protein stability index [2]: 3.73 ± 0.18

Sequence: CQALDANLDANLAFASFTSGVVRI [TLE6]
- protein stability index [1]: 2.66 ± 0.67
- protein stability index [2]: 2.56 ± 0.37

Sequence: GISALVEIPKNCVVAAVGKELIIF [WDR41]
- protein stability index [1]: 2.01 ± 1.1
- protein stability index [2]: 2.69 ± 1.3

Sequence: GNSTQATVRDAVVGRPSMDKKAQ [ATL3]
- protein stability index [3]: 5.28 ± 0.13
- protein stability index [4]: 5.21 ± 0.23

Sequence: VVLPGAVSLRYSGATAASETLSGH [ADAMTS4]
- protein stability index [1]: 2.95 ± 0.46
- protein stability index [2]: 2.96 ± 0.41

Sequence: NMKNGANDVKHHRWFRSVDWEAVP [PRKX]
- protein stability index [1]: 2.95 ± 0.33
- protein stability index [2]: 3.08 ± 0.33

Sequence: TKTEDRELVLRKDCPKIVEPHGKM [ZSCAN9]
- protein stability index [1]: 4.79 ± 0.083
- protein stability index [2]: 4.72 ± 0.28

Sequence: FDVHPNELTNGVINAAFMLLFKDL [SNAP91]
- protein stability index [1]: 2.84 ± 0.81
- protein stability index [2]: 2.24 ± 0.41

Sequence: FGGGYGGGLGGGYGGGLGGGFGGG [KRT13]
- protein stability index [1]: 2.37 ± 1.4
- protein stability index [2]: 2.88 ± 0.15

Sequence: LEFYRYYQQLKLEGPGEQETKLDL [SLC29A1]
- protein stability index [1]: 2.953 ± 0.027
- protein stability index [2]: 3.11 ± 0.35

Sequence: DAGEGIQCSQRMLSFSDALLSIIA [TMEM175]
- protein stability index [1]: 2.25 ± 0.091
- protein stability index [2]: 2.35 ± 0.3

Sequence: LASQALTPPPGPASAQPLPAPEAA [TFE3]
- protein stability index [1]: 5.26 ± 0.25
- protein stability index [2]: 5.24 ± 0.11

Source: the supplement of paper PMC10567573
